Patent US9873883B2, “Glyphosate resistant plants and associated methods” (Dow AgroSciences LLC, priority 2012, dated 2018)
Changes are numbered by the printed parent chain. Numbers in names are those of the source. Where “and” joins values, the source holds several entries; their conditions need not be identical. Equal entries are not always repeated.

How the values were obtained:
Conditions in all cases: other: pH 7.5, 1 mM S3P
C=C(OP(=O)(O)O)C(=O)O = experiment: purified protein, by the assay type
[1] = substrate: C=C(OP(=O)(O)O)C(=O)O; experiment: purified protein, by the assay type; remark: listed apart in the source
[2] = substrate: C=C(OP(=O)(O)O)C(=O)O; experiment: In vitro kinetic assay (inorganic phosphate production, malachite green); assay type: biochemical, Triticum aestivum
Source text: (§1) The following Class I enzymes: DGT-1 from Glycine max, DGT-3 from Brassica napus (GENBANK ACC NO: P17688), and DGT-7 from Triticum aestivum (GENBANK ACC NO: EU977181) were used as a comparison. The Class I EPSP synthase enzymes and mutant variants thereof were synthesized and evaluated. A mutation introduced into the plant EPSP synthase enzymes consisted of the Glycine to Alanine mutation made within the EPSP synthase enzyme at a similar location as that of the G96A mutation from the E. coli version of the enzyme. In addition, Threonine to Isoleucine and Proline to Serine mutations were introduced within these Class I EPSP synthase enzymes at analogous positions as that of amino acid 97 (T to I) and amino acid 101 (P to S) in the EPSP synthase of E. coli as described in Funke et al., (2009).
(§2) The location of the amino acid residue which was mutated from glycine to alanine is indicated by the first asterisk. The location of the amino acid residue which was mutated from threonine to isoleucine is indicated by the second asterisk. The location of the third amino acid residue which was mutated from proline to serine is indicated by the third asterisk. These mutations were introduced into different versions of DGT-1, DGT-3, and DGT-7. The different versions of the genes which contain the mutations are described in more detail below.
(§3) Additional constructs containing the dgt-1, dgt-3 and dgt-7 were synthesized. These constructs were used for in vitro testing of the dgt-1 v5, dgt-1 v6, dgt-1 v7, dgt-1 v8, dgt-3 v6, dgt-3 v7, dgt-3 v8, dgt-7 v5, dgt-7 v6, dgt-7 v7, and dgt-7 v8 gene sequences were outsourced to GeneArt for synthesis and cloning. The synthesized genes were cloned into the pET28 expression vector. The resulting constructions were labeled as pDAB102028 containing dgt-1 v5, pDAB102029 containing dgt-1 v6, pDAB102032 containing dgt-1 v7, pDAB102034 containing dgt-1 v8, pDAB100429 containing dgt-3 v6, pDAB100442 containing dgt-3 v7, pDAB100430 containing dgt-3 v8, pDAB102036 containing dgt-7 v5, pDAB102038 containing dgt-7 v6, pDAB102040 containing dgt-7 v7, and pDAB102042 containing dgt-7 v8.
(§4) Recombinant DGT proteins were overexpressed in Rosetta2™ (DE3) cells (Novagen, Madison, Wis.) from the constructs described above. A single colony was used to inoculate 50 mL starter cultures of LB containing chloramphenicol (25 μg/mL) and kanamycin (50 μg/mL) which were cultivated overnight at 37° C. The overnight cultures were used to inoculate 1 L of LB containing chloramphenicol (25 μg/mL) and kanamycin (50 μg/mL). The cultures were grown at 37° C. to an O.D.600=0.6 then placed in an ice water bath for 10 minutes. Expression of the target proteins was achieved by addition of IPTG to a final concentration of 500 μM. Induction was allowed to proceed overnight at 20° C. followed by harvesting via centrifugation at 8,000 rpm for 20 minutes. The cell pellets were stored at −80° C. until required for purification. All purification steps were carried out at 4° C.
(§5) Cell pellets from 1 L cultures were resuspended in 20-30 mL Buffer A (50 mM HEPES pH 7.5, 150 mM KCl, 2 mM DTT, 1 mM EDTA, 20 mM imidazole, and 5% glycerol). COMPLETE™ protease inhibitor cocktail (1 tablet/50 mL, Roche, Indianapolis, Ind.) and lysozyme (1 mg/mL, Sigma-Aldrich, St. Louis, Mo.) were then added and the suspension was stirred for 20 minutes. Cell lysis was performed using a Branson Sonifier 250 (3×60 second bursts) followed by removal of the cell debris by centrifugation at 16,000 rpm for 45 minutes. […]

[3] = substrate: C=C(OP(=O)(O)O)C(=O)O; experiment: as above; assay type: biochemical, Glycine max
Source text: as §1, §2, §3, §4, §5

[4] = substrate: C=C(OP(=O)(O)O)C(=O)O; experiment: as above; assay type: biochemical, Brassica napus
Source text: as §1, §2, §3, §4, §5

Mariprofundus ferrooxydans EPSP synthase DGT-14 v1, native wild type (GENBANK ZP_01452683; SEQ ID NO:17) (Mariprofundus ferrooxydans PV-1)
Km (C=C(OP(=O)(O)O)C(=O)O): 208.6 µM

bacterial EPSP synthase DGT-18 (GENBANK NP_928909.1) variant DGT-18 v6 (G→A at residue 96), SEQ ID NO:9 (Photorhabdus laumondii subsp. laumondii TTO1; G96A)
Km (C=C(OP(=O)(O)O)C(=O)O): 375.9 µM | kcat/Km (C=C(OP(=O)(O)O)C(=O)O): 40000 M⁻¹ s⁻¹

bacterial EPSP synthase DGT-30 (GENBANK ZP_02156189.1) variant DGT-30 v6 (G→A at residue 96), SEQ ID NO:13 (Shewanella benthica KT99; G96A)
Km (C=C(OP(=O)(O)O)C(=O)O): 414.9 µM | kcat/Km (C=C(OP(=O)(O)O)C(=O)O): 30000 M⁻¹ s⁻¹

bacterial EPSP synthase DGT-11 v6, native (GENBANK YP_989551.1), SEQ ID NO:5 (Bartonella bacilliformis INS)
Km (C=C(OP(=O)(O)O)C(=O)O): 1576.6 µM | kcat/Km (C=C(OP(=O)(O)O)C(=O)O): 50 M⁻¹ s⁻¹

bacterial EPSP synthase DGT-29 (GENBANK YP_322772.1) variant DGT-29 v6 (G→A at residue 96), SEQ ID NO:11 (Trichormus variabilis ATCC 29413; G96A)
Km (C=C(OP(=O)(O)O)C(=O)O): 1502.2 µM | kcat/Km (C=C(OP(=O)(O)O)C(=O)O): 4000 M⁻¹ s⁻¹

B1: Triticum aestivum (wheat) EPSP synthase DGT-7 v5, native (GENBANK EU977181), SEQ ID NO: 60 (Triticum aestivum) (protein)
chain: MATSVAAPAAPSGAEEVVLQPIREISGAVQLPGSKSLSNRILLLSALSEGTTVVDNLLNSEDVHYMLEALEALGLSVEADKVAKRAVVVGCGGRFPVEKDAQEEVKLFLGNAGTAMRPLTAAVVAAGGNATYVLDGVPRMRERPIGDLVVGLQQLGADADCFLGTNCPPVRINGKGGLPGGKVKLSGSISSQYLSSLLMAAPLALEDVEIEIIDKLISVPYVEMTLKLMERFGVTAEHSDSWDRFYIKGGQKYKSPGNAYVEGDASSASYFLAGAAITGGTVTVEGCGTTSLQGDVKFAEVLEMMGAKVTWTDTSVTVTGPPRQPFGRKHLKAVDVNMNKMPDVAMTLAVVALFADGPTAIRDVASWRVKETERMVAIRTELTKLGATVEEGPDYCIITPPEKLNITAIDTYDDHRMAMAFSLAACAEVPVTIRDPGCTRKTFPNYFDVLSTFVKN
Km [1]: 75.6 µM

B2: Triticum aestivum (wheat) EPSP synthase DGT-7 variant DGT-7 v7 (G→A, P→S; GAPS) (Triticum aestivum; G167A/P172S) (protein)
chain: B1 chain with G113A, P118S
notes: GAPS double mutant
Km [2]: 1103.2 µM | kcat/Km [2]: 14600 M⁻¹ s⁻¹

B3: Triticum aestivum (wheat) EPSP synthase DGT-7 variant DGT-7 v6 (G→A) (Triticum aestivum; G167A) (protein)
chain: B1 chain with G113A
Km [2]: 538.2 µM | kcat/Km [2]: 16100 M⁻¹ s⁻¹

B4: Triticum aestivum (wheat) EPSP synthase DGT-7 variant DGT-7 v8 (T→I, P→S; TIPS) (Triticum aestivum; P172S/T168I) (protein)
chain: B1 chain with T114I, P118S
notes: TIPS double mutant
Km [2]: 60.5 µM

B5: Glycine max (soybean) EPSP synthase DGT-1 v5, native, SEQ ID NO: 59 (Glycine max) (protein)
chain: MASVAAAEKPSTSPEIVLEPIKDFSGTITLPGSKSLSNRILLLAALSEGTTVVDNLLYSEDIHYMLGALRTLGLRVEDDKTTKQAIVEGCGGLFPTSKESKDEINLFLGNAGTAMRPLTAAVVAAGGNASYVLDGVPRMRERPIGDLVAGLKQLGADVDCFLGTNCPPVRVNGKGGLPGGKVKLSGSVSSQYLTALLMAAPLALGDVEIEIVDKLISVPYVEMTLKLMERFGVSVEHSGNWDRFLVHGGQKYKSPGNAFVEGDASSASYLLAGAAITGGTITVNGCGTSSLQGDVKFAEVLEKMGAKVTWSENSVTVSGPPRDFSGRKVLRGIDVNMNKMPDVAMTLAVVALFANGPTAIRDVASWRVKETERMIAICTELRKLGATVEEGPDYCVITPPEKLNVTAIDTYDDHRMAMAFSLAACGDVPVTIKDPGCTRKTFPDYFEVLERLTKH
Km [1]: 70 µM and 73.0 µM

B6: Glycine max (soybean) EPSP synthase DGT-1 variant DGT-1 v6 (G→A) (Glycine max; G182A) (protein)
chain: B5 chain with G112A
Km [3]: 608.2 µM | kcat/Km [3]: 13400 M⁻¹ s⁻¹

B7: Glycine max (soybean) EPSP synthase DGT-1 variant DGT-1 v8 (T→I, P→S; TIPS) (Glycine max; P187S/T183I) (protein)
chain: B5 chain with T113I, P117S
Km [3]: 151.4 µM

B8: Glycine max (soybean) EPSP synthase DGT-1 variant DGT-1 v7 (G→A, P→S; GAPS) (Glycine max; G182A/P187S) (protein)
chain: B5 chain with G112A, P117S
Km [3]: 1291.2 µM | kcat/Km [3]: 6670 M⁻¹ s⁻¹

B9: Brassica napus (canola) EPSP synthase DGT-3 (GENBANK P17688) variant DGT-3 v6 (G→A) (Brassica napus; G173A) (protein)
chain: KASEIVLQPIREISGLIKLPGSKSLSNRILLLAALSEGTTVVDNLLNSDDINYMLDALKKLGLNVERDSVNNRAVVEGCGGIFPASLDSKSDIELYLGNAATAMRPLTAAVTAAGGNASYVLDGVPRMRERPIGDLVVGLKQLGADVECTLGTNCPPVRVNANGGLPGGKVKLSGSISSQYLTALLMAAPLALGDVEIEIIDKLISVPYVEMTLKLMERFGVSAEHSDSWDRFFVKGGQKYKSPGNAYVEGDASSASYFLAGAAITGETVTVEGCGTTSLQGDVKFAEVLEKMGCKVSWTENSVTVTGPSRDAFGMRHLRAVDVNMNKMPDVAMTLAVVALFADGPTTIRDVASWRVKETERMIAICTELRKLGATVEEGSDYCVITPPAKVKPAEIDTYDDHRMAMAFSLAACADVPVTIKDPGCTRKTFPDYFQVLESITKH
notes: made in house; host or cells: E. coli Rosetta2 (DE3)
Km [4]: 1073.4 µM | kcat/Km [4]: 13900 M⁻¹ s⁻¹

B10: Brassica napus (canola) EPSP synthase DGT-3 (GENBANK P17688) variant DGT-3 v7 (G→A, P→S; GAPS) (Brassica napus; G173A/P178S) (protein)
chain: B9 chain with P106S
notes: as for B9
Km [4]: 2728.3 µM | kcat/Km [4]: 2280 M⁻¹ s⁻¹

B11: Brassica napus (canola) EPSP synthase DGT-3 (GENBANK P17688) variant DGT-3 v8 (T→I, P→S; TIPS) (Brassica napus; P178S/T174I) (protein)
chain: B9 chain with A101G, T102I, P106S
notes: as for B9
Km [4]: 196.8 µM
